Source: patent publication US6132711A, “Enzymatic antioxidant of allene oxide for lipid peroxidation in biological systems” (Arizona Board of Regents, priority 1997, dated 2000)
“Also recorded” adds a separate entry of the source.

Assays:
[1] = test system: linoleic acid hydro peroxide (LOOH); assay: AOS activity assay: degradation of linoleic hydroperoxide (LOOH) followed at 234 nm; format: biochemical, guayule
Procedure: A difference spectra of this extract clearly indicated a characteristic peak at 450 nm (arrow, FIG. 6C). […] This substrate was prepared according to Zimmerman (Zimmerman, Biochem. Biophys. Res. Comm. 23:398-403 (1966); Zimmerman and Feng, Lipids 13:313-316 (1978); Zimmerman and Vick, Plant. Physiol. 46:445-453 (1970)).
(1991) and Zimmerman, op cit. (1966); Zimmerman and Vick, op cit. (1970) and Zimmerman and Feng, op cit. (1978)

[2] = Backhaus et al. 1991; cited from earlier work
[3] = test system: linoleic acid conjugated dienes; assay: UV spectrophotometry of superoxide-induced linoleic acid conjugated dienes (A234); format: biochemical, guayule
Procedure: Likewise, the effect of superoxide, produced by the riboflavin/TEMED mixture and light, on lipid peroxidation was determined. […] The mixture was exposed to light and scanned in a UV spectrophotometer at 200 to 300 nm at 10 sec intervals for 2 minutes and again at 5 and 10 min. The effect of AOS on superoxide-inducedlinoleic hydroperoxides was determined using partially pure AOS solubilized from fresh rubber particles using the CHAPS extraction and filtration procedure (Pan et al., J Biol Chem 270: 8487-8494, 1995), which removed all remaining rubber. One μg partially pure AOS was added to oxidized linoleic acid and UV scanned at 2 minute intervals.
This mixture was scanned at A234 followed by addition of riboflavin/TEMED and exposure to 10 min. of light, to produce superoxide. The mixture was rescanned at 10 min intervals.

[4] = Prenyltransferase activity: incorporation of 14C-isopentenyl pyrophosphate into isoprenoid derivatives, TLC; format: biochemical, guayule; details: CHAPS-solubilized, filtered RPP; DMAPP as initiator; 100 μl aliquots
Procedure: Biochemical analyses were performed on RPP purified from rubber particles. Three-times-washed rubber particles were prepared by centrifugation according to Cornish and Backhaus, op cit. (1990) from a crude homogenate of guayule stembark. […] Prenyltransferase activity was determined for each purification step by measuring the incorporation of ^14 C-isopentenyl pyrophosphate into isoprenoid derivatives that were analyzed by TLC (benzene/ethyl acetate, 90/10) and autoradiography (Dogbo and Camara, Plant Sci. 49: 103-109 (1987); Kuntz et al., Plant J. 2:25-34 (1992)). Dimethylallyl pyrophosphate (DMAPP) was used as the initiator to measure activity in 100 μl aliquots of proteins from each of the three steps (FIG. 6B, lanes 1-3). […] However, prenyltransferase activity was present in both the crude homogenate and washed preparations containing rubber particles (cf. FIG. 6B, lane 3 with lanes 1 and 2). […]
Washed rubber particles were prepared by centrifugation according to Cornish and Backhaus, op cit.(1990) from a crude homogenate of guayule stembark. […] Prenyltransferase activity was determined for each purification step by measuring the incorporation of ^14 C-isopentenyl pyrophosphate into isoprenoid derivatives according to Dogbo and Camara, op cit. […]

tobacco leaf disks = assay: Cell leakage analysis of leaf disks treated with methyl viologen; format: cell-based, tobacco cv. Samsun; details: transgenic AOS tobacco vs untransformed control; 1.2 μM methyl viologen
Procedure: Transgenic cv. Samsun tobacco plants that […] AOS and untransformed cv. Samsun plants were gown in a growth chamber maintained at 28° C. and an irradiance of 500 μmole quanta per square meter per sec. at 16 hours per day. Leaf disks of transgenic plants (FIG. 20, disks 3, 6, 14 and 17) were compared with untransformed plants (FIG. 20, disk C) according to the general method set forth in Gupta et al., Proc. Natl. Acad. Sci. USA 90: 1629-1633 (1993).
Leaf disks (2 cm^2) were collected from tobacco plants and placed in petri dishes (15×60 mm) containing 4 ml of a 1.2 μM methyl viologen (MV) solution and vacuum infiltrated for 5 min. MV values are means ±SD (n=4). The samples were incubated at 22° C. for 16 hours in darkness followed by illumination at 500 μM quanta per square meter per sec. for 2 hours. The leaf disks then were incubated for an additional 16 hours in darkness.
The MV solution was collected for conductivity with leaf disks then was autoclaved for 10 min. at 121° C. The conductivity of the autoclaved solution was again measured. The present electrolyte leakage was determined by dividing the value of conductivity of MV solution by the value obtained after autoclaving.

lipid hydroperoxides = details: Hamberg 1987; cited from earlier work

B1: RPP: polypeptide of 53,500 Daltons from guayule rubber particles; non-mono-oxygenase cytochrome P450 heme-binding protein, a species of allene oxide synthase (protein)
chain: MDPSSKPLREIPGSYGIPFFQPIKDRLEYFYGTGGRDEYFRSRMQKYQSTVFRANMPPGPFVSSNPKVIVLLDAKSFPILFDVSKVEKKDLFTGTYMPSTKLTGAYRVLSYLDPSEPRHAQLKNLLFFMLKNSSNRVIPQFETTYYELFEGLEAELAKNGKAAFNDVGEQAAFRFLGRAYFNSNPEETKLGTSAPTLISSWVLFNLAPTLDLGLPWFLQEPLLHTFRLPAFLIKSTYNKLYDYFQSVATPVMEQAEKLGVPKDEAVHNILFAVCFNTFGGVKILFPNTLKWIGVAGENLHTQLAEEIRGAIKSYGDGNVTLEAIEQMPLTKSVVYESLRIEPPVPPQYGKAKSNFTIESHDATFEVKKGEMLFGYQPFATKDPKVFDRPEEFVPDRFVGDGEALLKYVWWSNGPETESPTVENKQCAGKDFVVLITRLFVIELFRRYDSEIELGESPLGAAVTLTFLKRASI
AOS activity (LOOH degradation) ([1]; UV spectra at 10 sec intervals): high AOS activity | time to complete disappearance of LOOH (234 nm peak) ([1]; enzyme preparation added to cuvette with LOOH, repetitive UV scans at 10 sec intervals): 10 min | isoelectric point (pI), experimental value [2]: 6.2 | A234 increase on exposure to light (superoxide) with AOS present ([3]; linoleic acid + riboflavin/TEMED + AOS): prevented the increase in A234 | A234 (conjugated dienes) after AOS added to oxidized linoleic acid ([3]; linoleic acid oxidized by riboflavin/TEMED in light, 1 μg partially pure AOS, listed as AOS): A234 decreased; also recorded: time-dependent disappearance of conjugated dienes | prenyltransferase activity [4]: complete absence of prenyltransferase activity; also recorded: synthesizes no isoprenes | percent electrolyte leakage (tobacco leaf disks): substantially less percent electrolyte leakage | kcat (lipid hydroperoxides): > 1000 s⁻¹
